Reference: paper PMC5391581

How the values were obtained:
[1] = biological target: SV40 LT 131-627 cS430T (Simian Virus 40); test: SEC; Superdex 200 10/300 GL; 250 μg LT (0.8 μg/μL) incubated with 4 mM UTP and 1 mM MgCl2; 25 mM Tris pH 8.0, 250 mM NaCl, 0.5 mM TCEP; percent hexamer from peak areas; monomer to hexamer
[2] = biological target: SV40 LT 131-627 cS430T (Simian Virus 40); test: SEC; Superdex 200 10/300 GL; 250 μg LT (0.8 μg/μL) incubated with 4 mM ATP and 1 mM MgCl2; 25 mM Tris pH 8.0, 250 mM NaCl, 0.5 mM TCEP; percent hexamer from peak areas; monomer to hexamer
[3] = biological target: SV40 LT 131-627 tK419A (Simian Virus 40); test: as above
[4] = biological target: SV40 LT 131-627 tK419A (Simian Virus 40); test: SEC; Superdex 200 10/300 GL; 250 μg LT (0.8 μg/μL) incubated with 4 mM TTP and 1 mM MgCl2; 25 mM Tris pH 8.0, 250 mM NaCl, 0.5 mM TCEP; percent hexamer from peak areas; monomer to hexamer
[5] = biological target: SV40 Large Tumor Antigen (LT) 131-627, wild type (Simian Virus 40); test: SEC; Superdex 200 10/300 GL; 250 μg LT (0.8 μg/μL) incubated with 4 mM UTP and 1 mM MgCl2; 25 mM Tris pH 8.0, 250 mM NaCl, 0.5 mM TCEP; percent hexamer from peak areas; monomer to hexamer
[6] = biological target: SV40 Large Tumor Antigen (LT) 131-627, wild type (Simian Virus 40); test: SEC; Superdex 200 10/300 GL; 250 μg LT (0.8 μg/μL) incubated with 4 mM ATP and 1 mM MgCl2; 25 mM Tris pH 8.0, 250 mM NaCl, 0.5 mM TCEP; percent hexamer from peak areas; monomer to hexamer
[7] = biological target: SV40 LT 131-627 cL557A (Simian Virus 40); test: as above
[8] = biological target: SV40 LT 131-627 cW393A (Simian Virus 40); test: as above

## SV40 LT 131-627 cS430T (domain or fragment)
[1]
  percent hexamer formed (UTP + Mg++): 84.6%
[2]
  stoichiometry N: 6

## SV40 LT 131-627 tK419A (domain or fragment)
[3]
  percent hexamer formed (ATP + Mg++): 83.9%
  stoichiometry N: 6
[4]
  decrease in hexamer formation compared to WT (TTP + Mg++): 25.2%

## SV40 Large Tumor Antigen (LT) 131-627, wild type (domain or fragment)
[5]
  percent hexamer formed (UTP + Mg++): 69.4%
[6]
  stoichiometry N: 6

## SV40 LT 131-627 cL557A (domain or fragment)
[7]
  percent hexamer formed (ATP + Mg++): 99.9%
  stoichiometry N: 6

## SV40 LT 131-627 cW393A (domain or fragment)
[8]
  percent hexamer formed (ATP + Mg++): 97.9%
  stoichiometry N: 6
